B1: TW212 (antibody)
VL: DIVLTQSPAYLTMSPGQTTTISCKASQSVSIGPIHLMHWYQQKPGQPPRLLIYGASNPESGVPARFSGSGSGTDFTLTIHPVEADDAATYFCQQGKESPRTFGPGTKLEITRADAKPTVSIFPPSSEQLGTGSATLVCFVNNFYPKDINVKWKVDGSEKRDGVLQSVTDQDSKDSTYSLSSTLSLTKADYERHNLYTCEVTHKTSTAAIVKTLNRNEC
VH: QVQLQESGPGLLKPAQSLSLTCTVTGYSIRSGYWWSWIRQQPGKGLEWMGQIYNKGNTDNNPSLKSQITMTVDTSKNQFFLRLRSVTTEDTAVYYCARVFWDDAYFDVWGQGIQVTVSSATTTAPSVYPLAPACDSTTSTTNTVTLGCLVKGYFPEPVTVSWNSGALTSGVHTFPSVLHSGLYSLSSSVTVPSSTWPSQTVTCNVAHPASSTKVDKKIVPGDGSGCKPCTCPGPEVSSVFIFPPKPKDVLTISLSPKVTCVVVDISQDDPEVQFSWFIDGKEVHTAVTQPREEQFNSTYRMVSVLPILHQDWLNGKEFKCKVNSPAFPVPIEKTISKRRGQLQVPQVYTMPPPKEQLTQSQVSLTCMIKGFYPEDIDVAWQKNGQPEQSFKNTPPVLDTDETYFLYSKLDVKKDDWEKGDTFTCSVVHEALHNHHTEKTLSQRPGK
B2: Antibody 15 (antibody, V domains shown)
VH: QVQLQESGPGLVKPSETLSLTCAVSGYSIRSGYWWSWIRQPPGKGLEWIGQIYNKGNTDNNPALKSRVTISVDTSKNQFSLKLSSVTAADTAVYYCARVFWDDAYFDVWGQGTMVTVSS
VL: EIVLTQSPATLSLSPGERATLSCKASQSVSIGPIHLMHWYQQKPGQAPRLLIYGASNPESGIPARFSGSGSGTDFTLTISSLEPEDFAVYYCQQGKESPRTFGQGTKLEIK
B3: Antibody 17 (antibody, V domains shown)
VH: QVQLQESGPGLVKPSETLSLTCTVSGYSIRSGYWWSWIRQPPGKGLEWIGQIYNKGNTDNNPALKSRVTISVDTSKNQFSLKLSSVTAADTAVYYCARVFWDDAYFDVWGQGTMVTVSS
VL: EIVLTQSPATLSLSPGERATLSCKASQSVSIGPIHLMHWYQQKPGQAPRLLIYGASNPESGIPARFSGSGSGTDFTLTISSLEPEDFAVYYCQQGKESPRTFGQGTKLEIK
B4: Antibody 23 (antibody, V domains shown)
VH: QVQLQESGPGLVKPSETLSLTCTVSGYSIRSGYWWSWIRQPPGKGLEWIGQIYNKGNTDNNPALKSRVTISVDTSKNQFSLKLSSVTAADTAVYYCARVFWDDAYFDVWGQGTMVTVSS
VL: EIVLTQSPGTLSLSPGERATLSCKASQSVSIGPIHLMHWYQQKPGQAPRLLIYGASNPESGIPDRFSGSGSGTDFTLTISRLEPEDFAVYYCQQGKESPRTFGQGTKLEIK
B5: Antibody 21 (antibody, V domains shown)
VH: QVQLQESGPGLVKPSETLSLTCAVSGYSIRSGYWWSWIRQPPGKGLEWIGQIYNKGNTDNNPALKSRVTISVDTSKNQFSLKLSSVTAADTAVYYCARVFWDDAYFDVWGQGTMVTVSS
VL: EIVLTQSPGTLSLSPGERATLSCKASQSVSIGPIHLMHWYQQKPGQAPRLLIYGASNPESGIPDRFSGSGSGTDFTLTISRLEPEDFAVYYCQQGKESPRTFGQGTKLEIK
B6: Antibody 18 (antibody, V domains shown)
VH: QVQLQESGPGLVKPSETLSLTCTVSGYSIRSGYWWSWIRQPPGKGLEWIGQIYNKGNTDNSPSLKSRVTISVDTSKNQFSLKLSSVTAADTAVYYCARVFWDDAYFDVWGQGTMVTVSS
VL: EIVLTQSPATLSLSPGERATLSCKASQSVSIGPIHLMHWYQQKPGQAPRLLIYGASNPESGIPARFSGSGSGTDFTLTISSLEPEDFAVYYCQQGKESPRTFGQGTKLEIK
B7: Antibody 19 (antibody, V domains shown)
VH: QVQLQESGPGLVKPSETLSLTCAVSGYSIRSGYWWSWIRQQPGKGLEWIGQIYNKGNTDNNPALKSQVTISVDTSKNQFSLKLSSVTAADTAVYYCARVFWDDAYFDVWGQGTMVTVSS
VL: EIVLTQSPATLSLSPGERATLSCKASQSVSIGPIHLMHWYQQKPGQAPRLLIYGASNPESGIPARFSGSGSGTDFTLTISSLEPEDFAVYYCQQGKESPRTFGQGTKLEIK
B8: Antibody 25 (antibody, V domains shown)
VH: QVQLQESGPGLVKPSETLSLTCAVSGYSIRSGYWWSWIRQQPGKGLEWIGQIYNKGNTDNNPALKSQVTISVDTSKNQFSLKLSSVTAADTAVYYCARVFWDDAYFDVWGQGTMVTVSS
VL: EIVLTQSPGTLSLSPGERATLSCKASQSVSIGPIHLMHWYQQKPGQAPRLLIYGASNPESGIPDRFSGSGSGTDFTLTISRLEPEDFAVYYCQQGKESPRTFGQGTKLEIK
B9: Antibody 24 (antibody, V domains shown)
VH: QVQLQESGPGLVKPSETLSLTCTVSGYSIRSGYWWSWIRQPPGKGLEWIGQIYNKGNTDNSPSLKSRVTISVDTSKNQFSLKLSSVTAADTAVYYCARVFWDDAYFDVWGQGTMVTVSS
VL: EIVLTQSPGTLSLSPGERATLSCKASQSVSIGPIHLMHWYQQKPGQAPRLLIYGASNPESGIPDRFSGSGSGTDFTLTISRLEPEDFAVYYCQQGKESPRTFGQGTKLEIK
B10: Antibody 26 (antibody, V domains shown)
VH: QVQLQESGPGLVKPSETLSLTCAVSGYSIRSGYWWSWIRQQPGKGLEWIGQIYNKGNTDNSPSLKSQVTISVDTSKNQFSLKLSSVTAADTAVYYCARVFWDDAYFDVWGQGTMVTVSS
VL: EIVLTQSPGTLSLSPGERATLSCKASQSVSIGPIHLMHWYQQKPGQAPRLLIYGASNPESGIPDRFSGSGSGTDFTLTISRLEPEDFAVYYCQQGKESPRTFGQGTKLEIK
B11: Antibody 22 (antibody, V domains shown)
VH: QVQLQESGPGLVKPSETLSLTCAVSGYSIRSGYWWSWIRQPPGKGLEWIGQIYNKGNTDNSPSLKSRVTISVDTSKNQFSLKLSSVTAADTAVYYCARVFWDDAYFDVWGQGTMVTVSS
VL: EIVLTQSPGTLSLSPGERATLSCKASQSVSIGPIHLMHWYQQKPGQAPRLLIYGASNPESGIPDRFSGSGSGTDFTLTISRLEPEDFAVYYCQQGKESPRTFGQGTKLEIK
B12: Antibody 20 (antibody, V domains shown)
VH: QVQLQESGPGLVKPSETLSLTCAVSGYSIRSGYWWSWIRQQPGKGLEWIGQIYNKGNTDNSPSLKSQVTISVDTSKNQFSLKLSSVTAADTAVYYCARVFWDDAYFDVWGQGTMVTVSS
VL: EIVLTQSPATLSLSPGERATLSCKASQSVSIGPIHLMHWYQQKPGQAPRLLIYGASNPESGIPARFSGSGSGTDFTLTISSLEPEDFAVYYCQQGKESPRTFGQGTKLEIK
B13: Antibody 16 (antibody, V domains shown)
VH: QVQLQESGPGLVKPSETLSLTCAVSGYSIRSGYWWSWIRQPPGKGLEWIGQIYNKGNTDNSPSLKSRVTISVDTSKNQFSLKLSSVTAADTAVYYCARVFWDDAYFDVWGQGTMVTVSS
VL: EIVLTQSPATLSLSPGERATLSCKASQSVSIGPIHLMHWYQQKPGQAPRLLIYGASNPESGIPARFSGSGSGTDFTLTISSLEPEDFAVYYCQQGKESPRTFGQGTKLEIK
B14: TW205 (antibody, V domains shown)
VH: QIHLQESGLGLVKPSQSLTLTCSVTGFSITTPDYSWHWIRQFPGQTLEWMGFLYYEGDTYYNPSLKSRISIARDASKNQFFLQLKSVTTEDTATYFCVRRKYSGYGNWFAYWGQGTQVTVSS
VL: QPVLTQAPSASASLRASVKLTCTLSSQHSTYYIEWYQQHPDKAPRYVMYVDSDGSHIKGDGVPDRFSGSSSGARRYLSISNLQPEDEAIYHCGVYDSTAGAVFGSGTQLTVLG
B15: TW202 (antibody, V domains shown)
VH: QLQLQESGLGLVKPSQSLTLTCSVTGFSITTPDYSWHWIRQLPGQTLEWMGFLYYEGDTYYNPSLKSRISIARDASKNQFFLQLKAVTTEDTATYFCARRKYSGYGNWFAYWGQGTLVTVSL
VL: QPVLTQSPSASASLRASVKLTCTLSSQHSTYYIEWYQQRPDKAPKYVMYLDSDGSHIKGDGIPDRFSGSSSGAHRYLSISNLQPEDEAIYHCGVYDSTAGAVFGSGTQLTVLG

The target in this test is Mouse soluble TWEAK (mouse) (UniProt O54907). The experiment in a line: receptor interaction ELISA: antibody pre-incubated with mouse soluble TWEAK, binding to coated mouse Fn14:Fc.
For orientation: IC50 means the concentration that gives 50% inhibition. The low end stands for higher potency, the high end for lower potency. Regarding B1, the IC50 is 4.6 ng/mL.

B2 yielded an IC50 of 5 ng/mL.

Molecule B3 yielded a concentration for half-maximal inhibition (IC50) of 6 ng/mL.

In turn, B4 displayed an IC50 of 6 ng/mL.

B5 yielded an IC50 of 5 ng/mL.

The molecule B6 showed an IC50 of 6 ng/mL.

Turning to B7, the IC50 was 7 ng/mL.

B8 came in with an IC50 of 18 ng/mL.

As to B9, the IC50 is 8 ng/mL.

In turn, B10 had an IC50 of 36 ng/mL.

Take B11: the IC50 is 5 ng/mL.

In turn, B12 returned an IC50 of 14 ng/mL.

On to B13, for which the IC50 came to 7 ng/mL.

The molecule B14 showed an IC50 of 5.1 ng/mL.

B15 gave an IC50 of 9 ng/mL.
